Measurements from patent US20220288204A1, “DOSAGE AND ADMINISTRATION OF ANTI-ERBB3 (HER3) MONOCLONAL ANTIBODIES TO TREAT TUMORS ASSOCIATED WITH NEUREGULIN 1 (NRG1) GENE FUSIONS” (ELEVATION ONCOLOGY, INC., priority 2021, published 2022).

Assays:
[1] = cited from earlier work
CH-17-0068 PDX tumors = experiment: Intrahepatic cholangiocarcinoma PDX model (RBPMS-NRG1); type: in vivo, mice; conditions: monotherapy seribantumab 5 mg and 10 mg per dose BIW vs afatinib 5 mg/kg QD
Experimental: Representative H&E-stained CH-17-0068 PDX tumor (FIG. 9A). Genomic alterations identified by RNAseq and corresponding investigational targeted therapies (FIG. 9B). […] Afatinib (5 mg/kg QD) or AG-120 (isocitrate dehydrogenase [IDH] inhibitor, 150 mg/kg twice daily [BID]) were then added to the indicated groups. Results represent the mean±SEM. Change in the volume of individual tumors on day 30 (FIG. 9D) or at the end of the study (FIG. 9E).
(§1) Models of isogenic pancreatic cancer cells with NRG1 fusions by lentiviral-mediated cDNA expression of ATP1B1-NRG1 and SLC3A2-NRG1 fusions in immortalized human pancreatic ductal cells (H6c7) were developed. […] Western blotting analysis was used to evaluate protein phosphorylation and expression. The presence of NRG1 fusions was confirmed by reverse transcription polymerase chain reaction (RT-PCR) and next-generation sequencing (NGS).

[2] = test system: HER3 and AKT phosphorylation in H6c7-ATP1B1-NRG1 cells; experiment: Western blotting of HER3 and AKT phosphorylation; type: cell-based, human; conditions: serum-starved 24 hours
From the text: (§2) H6C7-EV (empty vector) and H6C7-ATP1B1-NRG1 cells were profiled for activated intracellular kinases using phospho-proteomic arrays (FIG. 7A). H6C7-EV and H6C7 cells with the indicated NRG1 fusions were profiled for activated receptor tyrosine kinases (RTK) using phospho-RTK arrays (FIG. 7B). Quantitation of phosphorylated EGFR, HER2, and HER3 is shown (FIG. 7C). Western blot analysis of cell extracts from H6C7-EV and H6C7 cells expressing NRG1 fusions (FIGS. 7D-E). […] All cells were serum-started for 24 hours prior to experimentation.
as §1
(§3) There was no regression of afatinib-treated pancreatic PDX tumors. […] This was confirmed using a human-specific GAPH antibody.

[3] = test system: HER3 and AKT phosphorylation in H6c7-SLC3A2-NRG1 cells; experiment: Western blotting of HER3 and AKT phosphorylation; type: cell-based, human; conditions: serum-starved 24 hours
From the text: as §2, §1, §3

B1: seribantumab: anti-ERBB3 (HER3) fully human monoclonal antibody; heavy and light chains SEQ ID NOs: 12 and 13 (antibody)
heavy: EVQLLESGGGLVQPGGSLRLSCAASGFTFSHYVMAWVRQAPGKGLEWVSSISSSGGWTLYADSVKGRFTISRDNSKNTLYLQMNSLRAEDTAVYYCTRGLKMATIFDYWGQGTLVTVSSASTKGPSVFPLAPCSRSTSESTAALGCLVKDYFPEPVTVSWNSGALTSGVHTFPAVLQSSGLYSLSSVVTVPSSNFGTQTYTCNVDHKPSNTKVDKTVERKCCVECPPCPAPPVAGPSVFLFPPKPKDTLMISRTPEVTCVVVDVSHEDPEVQFNWYVDGVEVHNAKTKPREEQFNSTFRVVSVLTVVHQDWLNGKEYKCKVSNKGLPAPIEKTISKTKGQPREPQVYTLPPSREEMTKNQVSLTCLVKGFYPSDIAVEWESNGQPENNYKTTPPMLDSDGSFFLYSKLTVDKSRWQQGNVFSCSVMHEALHNHYTQKSLSLSPGK
light: QSALTQPASVSGSPGQSITISCTGTSSDVGSYNVVSWYQQHPGKAPKLIIYEVSQRPSGVSNRFSGSKSGNTASLTISGLQTEDEADYYCCSYAGSSIFVIFGGGTKVTVLGQPKAAPSVTLFPPSSEELQANKATLVCLVSDFYPGAVTVAWKADGSPVKVGVETTKPSKQSNNKYAASSYLSLTPEQWKSHRSYSCRVTHEGSTVEKTVAPAECS
[1]; 43 advanced solid tumor patients
  maximum tolerated dose: not reached
[1]; 43 patients, all grades regardless of relationship
  treatment-emergent adverse events having >20% incidence: fatigue, nausea, diarrhea, vomiting, decreased appetite, hyperglycemia, hypokalemia, and rash
[1]; 43 patients
  hypomagnesemia: Grade 1
  most commonly reported adverse events: Grade 1 or 2 rash, nausea, diarrhea and fatigue
CH-17-0068 PDX tumors
  efficacy compared with afatinib: equally effective as afatinib
[2]
  HER3 and AKT phosphorylation: dose-dependent inhibition
[3]
  HER3 and AKT phosphorylation: dose-dependent inhibition
